The text below walks through data of the DeepSol protein solubility set.

The series can be described thus: soluble on expression in E. coli; label from the status in PepcDB or PDB records.
As for “MTTCGEFLVKQLEAWGVETVFGIPGVHTVELYRGLPGSRIRHVTPRHEQGAGFMADGYARVTGKPGVCFIITGPGMTNILTAMAQAYADSIPMLVISSVNERARLAHGNGYLHELPNQRNLVGNVCAFSHTLMSAEELPAVLARAFAVFDSERPRPVHIELPLDVITAPAEHLALRPRTVTSRPAPALAPLREAAARLRNAKKPLLLLGGGCVEAAAEARALAAALDAPTALTINAKGLLPADHPLLLGSNQSCVPVRELATEADVVLAIGTELGETDYDVVFDGGFALDGELIRIDIDPQQLMRNYTPSLAIHSDARLAMRVLLAELPGGEASPDSPGARRAAAVRQRLAEDFAGWSHYRQLFAAILAEWPDARFVGDSTQTVYSGNHLVDLDEPRRWFNASTGYGTLGYGLPAAIGAKLGEPGRPVVSLMGDGGLQFTLPELASAVEAKVGIVVLLWNNHGYGEIKRYMERREITPLGVDIYTPDFLAIARGFGCAAERARDLEHLRELLRGAPADRPLIVEVLQAAPFHP”, the “soluble on expression in E. coli” value is on record as “not soluble”.

With “MTTFERIKKLSAKKGITISQLTSELEMGENSIYRWKTQKPALDKLQKVADYFNVSIDYLLGRTDNPQIDSDIPPEATTLAAHIDPAATEEDMKKILEYIDFIQQKYK”, the “soluble on expression in E. coli” value is on record as “not soluble”.

For the sequence “MTTILTYPFKNLPTASKWALRFSIRPLSCSSQLRAAPAVQTKTKKTLAKPNIRNVVVVDGVRTPFLLSGTSYKDLMPHDLARAALTGLLHRTSVPKEVVDYIIFGTVIQEVKTSNVAREAALGAGFSDKTPAHTVTMACISANQAMTTGVGLIASGQCDVIVAGGVELMSDVPIRHSRKMRKLMLDLNKAKSMGQRLSLISKFRFNFLAPELPAVSEFSTSETMGHSADRLAAAFAVSRLEQDEYALRSHSLAKKAQDEGLLSDVVPFKVPGKDTVTKDNGIRPSSLEQMAKLKPAFIKPYGTVTAANSSFLTDGASAMLIMAEEKALAMGYKPKAYLRDFMYVSQDPKDQLLLGPTYATPKVLEKAGLTMNDIDAFEFHEAFSGQILANFKAMDSDWFAENYMGRKTKVGLPPLEKFNNWGGSLSLGHPFGATGCRLVMAAANRLRKEGGQYGLVAACAAGGQGHAMIVEAYPK”, the “soluble on expression in E. coli” value is “not soluble”.

Turning to “MTTKEFEDTWAYNTIGSPFPDNPVRVKGQQNMYVALWYKFGKPIHGRAWNDNGNVECSFPYNKVELTGARDLGGQIQILTATEQDPTEQFKKTGFWYEWRPYKDRVNDQLLQLVRCGQSTPVIMKTKDGKDLLGYIDMSTEVAAVGVSGKSEQVAGGPIQDMLVLFRNVKAPPKGIKIYDDTWLDLKYRDPFPAARNPIAAGGRKVKSDDGTEMFQYVALWYEHGQPVFGRAYPDSADKTLANFGWGGQENAGAEIGSFQMLVVPDPDILGFEYKWIPYKEAKAGGPFKPLHVGECTPCLLKDANGTERLGNLHMGMEKATAGLAGKDSAVSGPAVGDFLVLCRN”, the “soluble on expression in E. coli” value is on record as “soluble”.

With “MTTLKLDTLSDRIKAHKNALVHIVKPPVCTERAQHYTEMYQQHLDKPIPVRRALALAHHLANRTIWIKHDELIIGNQASEVRAAPIFPEYTVSWIEKEIDDLADRPGAGFAVSEENKRVLHEVCPWWRGQTVQDRCYGMFTDEQKGLLATGIIKAEGNMTSGDAHLAVNFPLLLEKGLDGLREEVAERRSRINLTVLEDLHGEQFLKAIDIVLVAVSEHIERFAALAREMAATETRESRRDELLAMAENCDLIAHQPPQTFWQALQLCYFIQLILQIESNGHSVSFGRMDQYLYPYYRRDVELNQTLDREHAIEMLHSCWLKLLEVNKIRSGSHSKASAGSPLYQNVTIGGQNLVDGQPMDAVNPLSYAILESCGRLRSTQPNLSVRYHAGMSNDFLDACVQVIRCGFGMPAFNNDEIVIPEFIKLGIEPQDAYDYAAIGCIETAVGGKWGYRCTGMSFINFARVMLAALEGGHDATSGKVFLPQEKALSAGNFNNFDEVMDAWDTQIRYYTRKSIEIEYVVDTMLEENVHDILCSALVDDCIERAKSIKQGGAKYDWVSGLQVGIANLGNSLAAVKKLVFEQGAIGQQQLAAALADDFDGLTHEQLRQRLINGAPKYGNDDDTVDTLLARAYQTYIDELKQYHNPRYGRGPVGGNYYAGTSSISANVPFGAQTMATPDGRKAHTPLAEGASPASGTDHLGPTAVIGSVGKLPTAAILGGVLLNQKLNPATLENESDKQKLMILLRTFFEVHKGWHIQYNIVSRETLLDAKKHPDQYRDLVVRVAGYSAFFTALSPDAQDDIIARTEHML”, the “soluble on expression in E. coli” value is reported as “soluble”.

As for “MTTLNSTPRADGFHMPAEWAPQTQVWMVWPERPDNWRLGGKPAQAAHVAIAKAIARFEPVTVAVSAAQYDNARARLDMPNIRVVEMSSNDAWVRDSGPTFVINDRGELRGVNWEFNAWGGFDGGLYAPWNLDSQVGSKVLEIERCPRYATQGFVLEGGSIHVDGEGTLITTEECLLNRNRNPHLTREQIEAVLSDYLAVDKIIWLPDGLFNDETDGHVDNFCCYIRPGEVLLAWTDDPEDPNYPRCHAALSILENTRDAQGRAFIVHKMPIPGPLFATEEECAGVDQVHGSQERNPSVRLAGSYVNFLIVNGGIIAPSFDDPMDEKAREILQKLFPEHEVVMAPGRELLLGGGNIHCLTQQQPAPFKALEHHHHHH”, the “soluble on expression in E. coli” value was “soluble”.

With “MTTLTLNTSLLSSRRILAAFSGGLDSTVLLHQLVLWRERHPDVTLRAIHIHHGLSPHADSWVRHCETVCERWQVPLVVERVTLADNGLGIEAHAREARYRAFAQTLLPGEVLATAQHLDDQCETFLLALKRGSGPAGLSAMGERSPFAGTLLLRPLLRETRKTLEQWAVRHGLCWIEDESNQDDAYDRNFLRLRALPLLQQRWPHFPAAVARSATLCAEQERLLDELLASDLTDCITAEGTLRLSPLMSMSDVRRAAILRRWLAMRNAPMPSRDALERIWQEVALARDDASPCLRFGDHEIRRYQSQLWWIKSVAGQHETTVAWPVWQTPLALPAGLGTVQLVPGGELRRPREEESVSIRFKAPGVLHIVGRNGGRKLKKIWQEQGIPPWRRDTTPLLFYGETLIAAAGVFVTREGAAEDKEGVSLVWHA”, the “soluble on expression in E. coli” value is “not soluble”.

“MTTNLTNSNCVEEYKENGKTKIRIKPFNALIELYHHQTPTGSIKENLDKLENYVKDVVKAKGLAIPTSGAFSNTRGTWFEVMIAIQSWNYRVKRELNDYLIIKMPNVKTFDFRKIFDNETREKLHQLEKSLLTHKQQVRLITSNPDLLIIRQKDLIKSEYNLPINKLTHENIDVALTLFKDIEGKCKWDSLVAGVGLKTSLRPDRRLQLVHEGNILKSLFAHLKMRYWNPKAEFKYYGASSEPVSKADDDALQTAATHTIVNVNSTPERAVDDIFSLTSFEDIDKMLDQIIKK”: the “soluble on expression in E. coli” value is listed as “soluble”.

Turning to “MTTNSSSNTVVVYHSGYGHTHRMAEAVAEGAEATLHAIDAEGNLSEDGWAALDAADAIIFGTPTYMGGPSWQFKKFADASSKPWFSAKWQDKVFGGFTNSASLNGDKLNTLQYLVLLAGQHGGLWVSLGIKPSNLKSSVRNDANRMGSYIAPMAQSDADAAPEEMSVGDLETARLYGARVANVARQHKSTERV”, the “soluble on expression in E. coli” value is reported as “soluble”.

Consider “MTTRNPNRCPSHPGEILAESLEHLNASKTEIARILQISRQHLHGILKGERPVTAVTAARIGKLLGNGPALWLQLQANYDTWHALRDIDVSSIPTLTANEVDTQMEHSHS”, for which the “soluble on expression in E. coli” value was “not soluble”.

Turning to “MTTSLHRLEALAHPARVRIVRLLAELPDEETAKDPRCGTAYGVCFCHLKEKTGLSAPTVSHHLRILREAGLVEGVRVGRWTYYRLRPGALEAVARELLGLAQRARALEERSA”, the “soluble on expression in E. coli” value is listed as “soluble”.

As for “MTTVFDVPAAEMIDKLAGILKENENVVPPQWAGNVKTGVHKDLPPTNDDWWYVRCAAVLRKIYTDGPIGIERLRSVYGGKKDNGSQPYHKAKGSGSIARKSVQQLEAAGFLQKVKDGRTVSAKGRSMMDNAAHELKQELLEKIPELAKYLEHHHHHH”, the “soluble on expression in E. coli” value is “soluble”.

As to “MTVDFYSFAKGIVKGVLTPFYRIQTIGIEQFPKEGGVLLCANHISNLDPPVIGITAPRPIRFMAKEELFRAPVVKTLVKSLHAFPVKRGMNDRQALRTGLEVLKQGEVLGIFPEGTRSKDGRLKKALPGVGFFALRTDAAVVPCAIVGPYRPFVPLKVVYGAPVDMAPLRARKASPEEAADYIMDHIRRLLEEHQRA”, the “soluble on expression in E. coli” value is listed as “not soluble”.

“MTVFSGVNKIEFEGTFEGIGKDVVMSQMIRALQKHFPSIRDKNYEFSLFLHIFQRYVLENTSITHDLVCDKIRLPIIDEVVELDDIKNYGLLEGKLLSKLAILKLTGKANPIIGKESPLFEVKNGMSSLDVIVRQTQNLNVRYNSDVPLIFMTSLETESQVSNFLEEHYSSSKVRWKTVVQSSFPQIDKDRLLPIDLQINSHENDFWYPCGTGNLTDTLYFSGELDKLIAQGKEILFVSNVDNLGATGDLNILNFIINEKIEYLVEVVERTANVSNTGVLATYKGKLRSVYYNCLSNESASTCRIVNTNNIWIDLKKLKVLIESNSLNLPIHSSESKITHKNEEIECLQFKTQLVDCIAFFPNSRVLKVSRDRFLPLRTCKDLFLLKSTLYDLDSNGTFNLYPLKFGLLPSIDLGDEFATYETFKIGVPDIPNILELEHLTVMGNVFFGRNITLKGTVIIICDENDVITVPDGSILENVTIWHKSQLEDMNGY”: the “soluble on expression in E. coli” value is “not soluble”.

For “MTVIQNIPNSLCKGLNTFSKNYLQNCKRCLTFFYELCGIICKKIEIMKGYERATKEEINDRLRIEENCHAQVERIIYIRHLCNLNLEEAADVTNLSISTLSRYENEVTKCSVQSLITIYYHYQKYLYEQHIPFDKNLFLIDMNSFHN”, the “soluble on expression in E. coli” value is “not soluble”.

Take “MTVIQWFPGHMAKAKREVQEKLKLIDVAFELLDARVPMSSRNPMIDEILGQKPRLILLNKADMADEAVTEQWIRYFHDQGRLALPIDAQSGTGVRQIAAAAKEMVKDKFEKMRAKGIKNPRPVRALIVGIPNVGKSTLINRLAGRHIAKTGDKPGVTKAQQWIKVGKEMELLDTPGILWPKFEDEDVGYKLAVTGAIKDEILNLQDVAVYALRFLSTHYPNRLAERYGLDDIPDDIVALFDAIGRQRGCLTSGGAVDYDKVADIVLYDIRTEKLGRLSFETPASRT”: the “soluble on expression in E. coli” value is “not soluble”.

For “MTVQIPKLLFLHGFLQNGKVFSEKSSGIRKLLKKANVQCDYIDAPVLLEKKDLPFEMDDEKWQATLDADVNRAWFYHSEISHELDISEGLKSVVDHIKANGPYDGIVGFSQGAALSSIITNKISELVPDHPQFKVSVVISGYSFTEPDPEHPGELRITEKFRDSFAVKPDMKTKMIFIYGASDQAVPSVRSKYLYDIYLKAQNGNKEKVLAYEHPGGHMVPNKKDIIRPIVEQITSSLQEASE”, the “soluble on expression in E. coli” value is given as “soluble”.

For the sequence “MTVSPIDPVKLEKLAEVAIKVGLQLQKDQDLVITAPLAALPLVRLLTKHAYIAGGGLVTTFYSDEETTLSRYRHASDANFDRASGWLYEGMAKAYANGAARLAIAGDNPMLLAEEDPAKVARANKANSTAYKPALEKISNFDINWNIISYPNPSWAKQVFPGLTEDEAVRKLADAIFAASRVDVADPVAAWAQHNANLAKRSAWLNGERFSALHFTGPGTDVKIGLADGHEWHGGASMAKNGVTCNPNIPTEEVFTTPHALRVDGYVSSTKPLSHQGTLIDDIQVKFEAGRIVEAKASKGEAVLNKVLDTDEGARRLGEVALVPHSSPISASGILFYNTLFDENASCHIALGQCYSKCFLDGASLSQDQIKAQGGNSSLIHIDWMIGSNKVDIDGVKPDGSTVPVMRKGEWA”, the “soluble on expression in E. coli” value is listed as “not soluble”.

Turning to “MTVSSSAWMPRLISQQILSEYVKSLEVEADKVVIPGQNTPVFSWDRDGNGNLSIDTPLLKVRGESLATQADLTTISLTPGPKGELWQTSVERLDIKVDKHISLTFKNGVRID”, the “soluble on expression in E. coli” value is given as “not soluble”.

Turning to “MTVSTPEQHEQRASHDASEGKHNVCQGRLAALADAAVSEKLGALPGWQLLDMRLSRAFQCTNFDQSIDFMNRVASIANDINHHPDIAVLDKRSVRVTAWTRKLGYLTDIDFDLAASVEAMYATEFADRPAR”, the “soluble on expression in E. coli” value was “soluble”.
